According to the Immune Epitope Database (IEDB):

How the values were obtained:
[1] = biological target: HLA-B*15:01; assay: IEDB peptide-MHC binding, purified MHC/competitive/fluorescence; filed as Kd, often an IC50 or EC50 that approximates it; ≥ and ≤ were set here for values at or beyond the usual limits of such assays
[2] = biological target: HLA-B*35:01; assay: as above
[3] = biological target: HLA-B*46:01; assay: IEDB peptide-MHC binding, purified MHC/direct/fluorescence; filed as Kd, often an IC50 or EC50 that approximates it; ≥ and ≤ were set here for values at or beyond the usual limits of such assays
[4] = biological target: HLA-B*44:02; assay: as above
[5] = biological target: HLA-A*02:16; assay: as above; conditions: source organism: Influenza A virus H3N2
[6] = biological target: HLA-B*15:01; assay: as above
[7] = biological target: HLA-A*31:01; assay: as above; conditions: source organism: Influenza A virus (A/swine/Cotes d'Armor/800/00(H1N2))
[8] = biological target: HLA-B*08:01; assay: as above
[9] = biological target: HLA-A*69:01; assay: as above
[10] = biological target: HLA-B*18:01; assay: as above
[11] = biological target: HLA-A*11:01; assay: as above
[12] = biological target: HLA-A*02:11; assay: as above; conditions: source organism: Influenza A virus H3N2
[13] = biological target: HLA-A*24:02; assay: as above
[14] = biological target: HLA-A*02:01; assay: as above
[15] = biological target: HLA-B*40:01; assay: as above
[16] = biological target: HLA-A*03:01; assay: as above
[17] = biological target: HLA-B*07:02; assay: as above
[18] = biological target: HLA-B*58:01; assay: as above
[19] = biological target: HLA-A*01:01; assay: as above
[20] = biological target: HLA-B*27:05; assay: as above
[21] = biological target: HLA-B*15:09; assay: as above
[22] = biological target: HLA-B*46:01; assay: IEDB peptide-MHC binding, purified MHC/competitive/fluorescence; filed as Kd, often an IC50 or EC50 that approximates it; ≥ and ≤ were set here for values at or beyond the usual limits of such assays
[23] = biological target: HLA-A*02:16; assay: as above; conditions: source organism: Cryptosporidium parvum Iowa II
[24] = biological target: HLA-B*39:01; assay: as above
[25] = biological target: HLA-A*02:12; assay: as above; conditions: source organism: Cryptosporidium parvum Iowa II
[26] = biological target: HLA-B*51:01; assay: as above
[27] = biological target: HLA-A*02:19; assay: as above
[28] = biological target: HLA-A*69:01; assay: as above; conditions: source organism: Cryptosporidium parvum Iowa II
[29] = biological target: HLA-B*18:01; assay: as above
[30] = biological target: HLA-A*26:01; assay: as above
[31] = biological target: HLA-A*02:01; assay: as above
[32] = biological target: HLA-A*02:03; assay: as above; conditions: source organism: Cryptosporidium parvum Iowa II
[33] = biological target: HLA-B*57:01; assay: as above
[34] = biological target: HLA-A*68:02; assay: as above; conditions: source organism: Cryptosporidium parvum Iowa II
[35] = biological target: HLA-A*29:02; assay: as above
[36] = biological target: HLA-B*27:03; assay: as above
[37] = biological target: HLA-C*05:01; assay: IEDB peptide-MHC binding, purified MHC/direct/fluorescence; filed as Kd, often an IC50 or EC50 that approximates it; ≥ and ≤ were set here for values at or beyond the usual limits of such assays; conditions: source organism: Influenza A virus (A/Harbin/1/1988(H1N2))
[38] = biological target: HLA-B*07:02; assay: IEDB peptide-MHC binding, purified MHC/competitive/fluorescence; filed as Kd, often an IC50 or EC50 that approximates it; ≥ and ≤ were set here for values at or beyond the usual limits of such assays; conditions: source organism: Influenza A virus (A/Harbin/1/1988(H1N2))
[39] = biological target: HLA-B*08:02; assay: IEDB peptide-MHC binding, purified MHC/direct/fluorescence; filed as Kd, often an IC50 or EC50 that approximates it; ≥ and ≤ were set here for values at or beyond the usual limits of such assays; conditions: source organism: Cryptosporidium parvum Iowa II
[40] = biological target: HLA-A*24:03; assay: as above; conditions: source organism: Orthohantavirus hantanense
[41] = biological target: HLA-A*23:01; assay: as above; conditions: source organism: Orthohantavirus hantanense
[42] = biological target: HLA-A*03:01; assay: IEDB peptide-MHC binding, purified MHC/competitive/fluorescence; filed as Kd, often an IC50 or EC50 that approximates it; ≥ and ≤ were set here for values at or beyond the usual limits of such assays
[43] = biological target: HLA-B*15:17; assay: as above; conditions: source organism: Rickettsia felis URRWXCal2
[44] = source organism: Influenza A virus (A/Aichi/2/1994(H3N2))
[45] = source organism: Influenza A virus (A/swine/Cotes d'Armor/800/00(H1N2))
[46] = source organism: Influenza A virus (A/Puerto Rico/8/34/Mount Sinai(H1N1))
[47] = source organism: Giardia lamblia ATCC 50803
[48] = source organism: Cryptosporidium parvum Iowa II
[49] = source organism: Influenza A virus (A/Harbin/1/1988(H1N2))
[50] = source organism: Cryptosporidium parvum
[51] = source organism: Rickettsia felis URRWXCal2

For FQNVNRITY, the Kd [1, 44] was 0.0751 µM and the Kd [2, 44] was 0.0394 µM.

GMDPRMCSL gave a Kd [3, 45] of at least 20 µM, a Kd [4, 45] of at least 20 µM and a Kd [5] of 0.019 µM. The Kd [6, 45] was at least 20 µM, the Kd [7] was at least 20 µM and the Kd [8, 46] was 6.22 µM. It also gave a Kd [9, 45] of at least 20 µM, a Kd [10, 45] of at least 20 µM and a Kd [11, 45] of at least 20 µM. The Kd [12] was 0.011 µM, the Kd [13, 45] was at least 20 µM and the Kd [14, 46] was 0.392 µM. It also gave a Kd [15, 45] of at least 20 µM, a Kd [16, 45] of at least 20 µM and a Kd [17, 46] of 1.66 µM. The Kd [18, 45] was at least 20 µM, the Kd [19, 45] was at least 20 µM and the Kd [20, 45] was at least 20 µM.

Work on IFKNLTKPL yielded a Kd [4, 47] of at least 20 µM, a Kd [6, 47] of 0.757 µM and a Kd [8, 47] of 0.774 µM. The Kd [9, 47] was at least 20 µM, the Kd [10, 47] was at least 20 µM and the Kd [11, 47] was at least 20 µM. The Kd [13, 47] was at least 20 µM, the Kd [14, 47] was at least 20 µM and the Kd [15, 47] was at least 20 µM. The Kd [21, 47] was at least 20 µM, the Kd [16, 47] was at least 20 µM and the Kd [17, 47] was at least 20 µM. It also gave a Kd [18, 47] of at least 20 µM, a Kd [19, 47] of at least 20 µM and a Kd [20, 47] of at least 20 µM.

In the case of KSFSAGMFH, the Kd [22, 48] is reported as at least 20 µM, the Kd [23] is reported as at least 20 µM and the Kd [24, 48] is reported as at least 20 µM. It also gave a Kd [25] of at least 20 µM, a Kd [26, 48] of at least 20 µM and a Kd [27, 48] of at least 20 µM. It also gave a Kd [28] of at least 20 µM, a Kd [29, 48] of at least 20 µM and a Kd [30, 48] of at least 20 µM. For the same sequence, the Kd [31, 48] was at least 20 µM, the Kd [32] was at least 20 µM and the Kd [33, 48] was 0.574 µM. It also gave a Kd [34] of at least 20 µM, a Kd [35, 48] of at least 20 µM and a Kd [36, 48] of at least 20 µM.

With LPFQNVHPV the Kd [37] was at least 20 µM, the Kd [26, 49] was 1.49 µM and the Kd [2, 49] was 0.0004 µM. It also gave a Kd [38] of 0.161 µM.

For NTSTCFQEY, the Kd [3, 50] was at least 20 µM, the Kd [4, 50] was at least 20 µM and the Kd [6, 50] was 0.592 µM. The Kd [39] was at least 20 µM, the Kd [9, 50] was at least 20 µM and the Kd [13, 50] was at least 20 µM. It also gave a Kd [14, 50] of at least 20 µM, a Kd [15, 50] of at least 20 µM and a Kd [21, 48] of at least 20 µM. It also gave a Kd [16, 50] of at least 20 µM, a Kd [17, 50] of at least 20 µM and a Kd [18, 50] of at least 20 µM. For the same sequence, the Kd [19, 50] was 0.0305 µM and the Kd [20, 50] was at least 20 µM.

QWLIEPCKL showed a Kd [40] of 0.205 µM, a Kd [41] of 0.18 µM and a Kd ([13]; source organism: Orthohantavirus hantanense) of 0.155 µM.

QYLFSLTYV gave a Kd [22, 51] of at least 20 µM, a Kd [1, 51] of at least 20 µM and a Kd [24, 51] of at least 20 µM. For the same sequence, the Kd [26, 51] was at least 20 µM, the Kd [27, 51] was at least 20 µM and the Kd [30, 51] was at least 20 µM. It also gave a Kd [31, 51] of 1.19 µM, a Kd [33, 51] of at least 20 µM and a Kd [35, 51] of 8 µM. The Kd [42, 51] was at least 20 µM, the Kd [43] was at least 20 µM and the Kd [36, 51] was at least 20 µM.

In the case of RYMRVYNLW, the Kd [13, 47] is reported as 0.002 µM.

For VVPSYIPLV, the Kd ([22]; source organism: Homo sapiens) was at least 20 µM, the Kd ([1]; source organism: Homo sapiens) was at least 20 µM and the Kd ([24]; source organism: Homo sapiens) was at least 20 µM. It also gave a Kd ([29]; source organism: Homo sapiens) of at least 20 µM, a Kd ([31]; source organism: Homo sapiens) of 0.0007 µM and a Kd ([33]; source organism: Homo sapiens) of at least 20 µM. The Kd ([35]; source organism: Homo sapiens) was at least 20 µM, the Kd ([42]; source organism: Homo sapiens) was at least 20 µM and the Kd ([36]; source organism: Homo sapiens) was at least 20 µM.
